Reference: the nanobody polyreactivity screen of Harvey et al. (2022)

Test: yeast display, Sf9 membrane polyspecificity reagent, FACS + sequencing; frameworks hold sequencing errors
Summary of the method: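 Nanobodies from a synthetic yeast display library (Saccharomyces cerevisiae BJ5465), induced 36–48 hours with galactose, were stained 1 hour at 4 °C with 10% biotinylated, detergent-solubilized Sf9 membrane reagent, enriched on streptavidin microbeads, then FACS-sorted. Anti-HA (expression) and streptavidin (reagent binding) fluorescence set low and high (top ~1%) gates. Polyreactivity labels come from the gate of origin. Genes were colony-PCR amplified, MiSeq 2 × 250 sequenced and filtered by CDR length.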

Row | Sequence | polyreactivity (PSR sort gate)
1 | QVQLQESGGGLVQAGGSLCLSCAASGTIFFDRDMGWYRQAPGKEREFVAAINPGGSAYYADSVKGRLPLAAITHTVYLQRNSLKPEVTAVYYCAAKLFDVYGYYYWGQGTDVTVSS | low polyreactivity
2 | QVQLQESGGGLVQAGGSLGCAASGNISTRSEMGWYRQAPGKDREFVATINSGGITNYADSVNGRFTISRDNAKKTVYLRMNSLKTEDTAVYYRAVFGYLSDPNDYCGQGTQVTVSS | low polyreactivity
3 | QVQLQESGGGLVQAGGSLLSCAASGTISWVDEMGWYRQAPGNERELVAGIAGGGNTNYADSVKGRFTISRDNAKNTVYLQMNSLDTAVYYCAGWDYTGNVVTGDYWGQGTQVTVSS | high polyreactivity
4 | QVQLQESGGGLVQAGGSLLSCAASGTISYYREMGWSRQSPGKQRELVAGIGVGTITYYADSVKGRFTISRDNAKKTVFLQMNSLNPEDTAVYYCAAHIDGNDSHAYWGQGTQVTVSS | low polyreactivity
5 | QVQLQESGGGLVQAGGSLRKSCAASGYIFTQYGMGWYRQGPGKERKFVATISYGGNTNYADSVKGRFTISRDNAKNTVYLQLNSLKPEDTAVYSCATKSVGYRKYWSGDIYDYWGQGTQVTVSS | low polyreactivity
6 | QVQLQESGGGLVQAGGSLRLICAASGTISTDSYMGWYRQAPGKERKFVATIGYGGITYYADSVNGRSTISRDSAKNTVYLQMNSLKPDDTAVYYCEVNSYYPYHYWYWGRGTQVTVSS | high polyreactivity
7 | QVQLQESGGGLVQAGGSLRLRCAASGSISRLDYMGWYRQASGKELELVAAIDNGSTTYYADSVKGRLTISRDNEKYTVYLKMNSLKPEDTAVYFCAAVRGRGGTHAYWGQGTQVTVSG | low polyreactivity
8 | QVQLQESGGGLVQAGGSLRLSCAARGSICLDQPMGWYRQSPCKDPELVATIGQGGNTNYADSVKGRFTISRDNEKNTVYLYMTSLKPEDTAVYYCAVVYFYNYAYHYYWGQGTQVTVCS | low polyreactivity
9 | QVQLQESGGGLVQAGGSLRLSCAASCTISQEDCMGWYRQAPGKVREFVAAIGLGSNTNYADSLKGRFTISRDNAKNTVYLQMNRLKPEDTAVYYCAVSVWQYSDHVYRGQGTQVTVSS | low polyreactivity
10 | QVQLQESGGGLVQAGGSLRLSCAASGDNLEADDMGWYRQAPGKERELVASITDGGSTNCADSMKGRSTICRDNAKITVYLQMNSLKLEDTAVYYCAAIAYPDVPTYFDYDSDYFYWGQGTLVTVSS | high polyreactivity
11 | QVQLQESGGGLVQAGGSLRLSCAASGNIFLGDTMGWYRQAPGKEREFVAGIARGGNPYYADSVKGRFTISRNNAKNTVYLQKNSLKAEDTAVHYCAVQRSHASDYNYWGQGTQVTVSS | low polyreactivity
12 | QVQLQESGGGLVQAGGSLRLSCAASGSIANLIAKGWSRQAQRKEREFVAAIGPGANTNYADSVKGRFTISRDNANNTVYRQMNSLKPEDTAVYYCAVDYYGEAVYHYWGQGTQVTVSS | high polyreactivity
13 | QVQLQESGGGLVQAGGSLRLSCAASGSIFDGFYMGWYRQAPGKEREFVAAISYGASTYYADSVKGRFTVSRDNAKNSVYLQMNSLKPEDTAVYYCAVYDELYHVLVYWGRGTQVTVSS | low polyreactivity
14 | QVQLQESGGGLVQAGGSLRLSCAASGSIFDYVSMGWYRQAPGEERELVVTITLGSNTYYADSVKGRFTISSDIAKNTVYLQMNSLNPVDTAVYYCAASALWGYVYPYWGLGTQVTVSS | high polyreactivity
15 | QVQLQESGGGLVQAGGSLRLSCAASGSIFLFYTMGWYRQAPVKEREFVAGITLGTTTYNADSVKGRFTISRDNVKNTVYLQMNSLKPEDTAVYYCAVAVGHYTEFWYWGQGTQVTMSS | high polyreactivity
16 | QVQLQESGGGLVQAGGSLRLSCAASGSIFVSVTMGWYRPAPGKERELVASIGRGSTTNHADSVKGRFTISRDNAKNIVYLLMNSLKPEDTAVYYCAALESYGKYHGYWGQGTQVTVSS | low polyreactivity
17 | QVQLQESGGGLVQAGGSLRLSCAASGSIFVSVTMGWYRQAPGKERELVASIGRGSTTNHADSVKGRFTISRDNAKNIVYLLMNSLKPEDTAVYYCAALESYGKYHGYWGQGTQVTVCS | low polyreactivity
18 | QVQLQESGGGLVQAGGSLRLSCAASGSIFYKDDMGWYRQAPGKEREFVAGIDRGGTTNCAGSVKGRFTISRDNAKNTVYLQMISLKPEDTAVYYCAAYYPDIYPFIYRGQGTQVTVSS | high polyreactivity
